Measured values published in patent US20150017115A1 (RAMOT AT TEL AVIV UNIVERSITY, published 2015).
Ends that are not written are not given here. CF = 5(6)-carboxyfluorescein

Target: T1, Neural cell adhesion molecule (NCAM, CD56) (human, UniProt P13591 20-858)
T1 construct: whole, on cells
Test: confocal microscopy of Saos-2 cells with fluorescently labeled peptide
Method: Cell specificity and uptake of the fluorescently labeled peptides was monitored utilizing a Zeiss Meta LSM 510 confocal imaging system. Cells were plated on glass slides and incubated overnight. The following day cells were incubated with 100 μM of CF-NTP or CF-scrambled peptide for 30 minutes at 37° C., washed several times with PBS, fixated with 4% paraformaldehyde, stained with Hoechst stain and mounted on slides. In order to examine intracellular trafficking of the peptide, cells were incubated with the peptides in serum free medium, washed several times with cold PBS and incubated with […] AlexaFluor 594 human transferrin for 1 h at 37° C. Cells were washed several times with PBS, fixated with 4% PFA, stained with Hoechst stain and mounted on slides.
Binding of NTP (SEQ ID NO:1) to Saos-2 cells, compared to binding of sNTP (SEQ ID NO:2), was examined by confocal microscopy. FITC-labeled targeting peptides were used. […] In experiments with transferrin, peptide was seen as intracellular aggregates or vesicles, though not colocalized with transferrin.

T1 sequence (P13591 20-858): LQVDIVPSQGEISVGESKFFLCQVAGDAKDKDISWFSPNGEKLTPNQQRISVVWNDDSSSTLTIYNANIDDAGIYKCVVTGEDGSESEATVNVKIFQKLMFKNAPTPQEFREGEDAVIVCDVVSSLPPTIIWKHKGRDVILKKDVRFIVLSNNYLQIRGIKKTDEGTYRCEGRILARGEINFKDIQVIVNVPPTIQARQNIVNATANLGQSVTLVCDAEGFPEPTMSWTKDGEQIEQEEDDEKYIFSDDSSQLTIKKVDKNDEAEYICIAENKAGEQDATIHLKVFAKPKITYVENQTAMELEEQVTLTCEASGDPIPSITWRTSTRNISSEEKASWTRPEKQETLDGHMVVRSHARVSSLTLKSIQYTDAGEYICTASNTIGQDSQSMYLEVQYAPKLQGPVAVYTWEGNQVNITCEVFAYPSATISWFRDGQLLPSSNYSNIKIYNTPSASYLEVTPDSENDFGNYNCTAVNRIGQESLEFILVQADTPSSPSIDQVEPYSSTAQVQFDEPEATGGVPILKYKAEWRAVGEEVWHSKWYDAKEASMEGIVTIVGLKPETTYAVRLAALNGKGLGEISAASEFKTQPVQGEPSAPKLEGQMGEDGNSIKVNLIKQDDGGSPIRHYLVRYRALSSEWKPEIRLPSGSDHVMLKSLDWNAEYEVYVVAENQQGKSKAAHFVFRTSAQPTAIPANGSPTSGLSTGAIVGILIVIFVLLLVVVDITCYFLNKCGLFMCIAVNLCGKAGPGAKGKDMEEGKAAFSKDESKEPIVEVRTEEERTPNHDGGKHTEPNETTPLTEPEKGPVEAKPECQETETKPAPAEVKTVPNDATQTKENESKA

B1: scrambled NTP sequence (sNTP), fluorescein-labeled (peptide)
peptide: {CF}-GESDDEND
notes: also called scrambled peptide; CF-scrambled peptide
Does B1 bind?
Result: no binding (tested: 100 µM)
